T1: human EphA10 extracellular region-SEAP-His protein (human, UniProt Q5JZY3 34-565)
T1 construct: extracellular domain; also called hEphA10-SEAP-His
T1 sequence (looked up): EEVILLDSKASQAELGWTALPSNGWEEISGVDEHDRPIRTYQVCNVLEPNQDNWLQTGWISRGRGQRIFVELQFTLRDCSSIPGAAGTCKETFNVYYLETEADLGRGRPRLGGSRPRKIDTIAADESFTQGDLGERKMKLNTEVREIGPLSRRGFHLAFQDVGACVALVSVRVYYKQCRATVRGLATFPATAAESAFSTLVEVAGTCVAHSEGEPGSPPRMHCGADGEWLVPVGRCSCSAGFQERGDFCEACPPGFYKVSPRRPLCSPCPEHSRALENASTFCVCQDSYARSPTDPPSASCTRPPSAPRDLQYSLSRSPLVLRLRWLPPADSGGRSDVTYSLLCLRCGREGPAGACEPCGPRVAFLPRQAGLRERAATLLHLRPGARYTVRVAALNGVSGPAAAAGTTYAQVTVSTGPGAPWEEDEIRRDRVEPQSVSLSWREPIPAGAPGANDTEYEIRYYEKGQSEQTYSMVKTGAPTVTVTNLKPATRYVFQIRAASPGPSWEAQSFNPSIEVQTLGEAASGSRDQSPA


Experiments:
[1] = target: T2, human EphA4 extracellular region-SEAP-His protein (human, UniProt P54764 20-547); experiment: competition ELISA, competitor human Ephrin A5-Fc
T2 construct: also called hEphA4-SEAP-His
In short: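 Ligand binding to captured receptor measured as A450 after HRP-streptavidin/TMBZ development and acid stop. Receptor fusion (10 nM final) was immobilised via anti-alkaline phosphatase antibody; biotinylated Ephrin A5-Fc (0.7 nM final) added together with antibody titrations from 0 to 3000 nM, 1 h, room temperature.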

[2] = target: SEAP-His (UniProt P05187 23-511); experiment: ELISA
[3] = target: T1, human EphA10 extracellular …; experiment: ELISA
[4] = target: T2, human EphA4 extracellular …; experiment: SPR, Ab captured
In short: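 Affinity (KD=kd/ka) obtained by fitting SPR curves to a 1:1 model. Analyte was human EphA4 extracellular region-SEAP-His, injected sequentially from 0.6 to 50 nM in HBS-EP (120 s on, 900 s off), onto humanized antibodies on protein A or antibody A on anti-mouse IgG1 surfaces, capture level about 30–60 RU.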

Chain of SEAP-His (P05187 23-511): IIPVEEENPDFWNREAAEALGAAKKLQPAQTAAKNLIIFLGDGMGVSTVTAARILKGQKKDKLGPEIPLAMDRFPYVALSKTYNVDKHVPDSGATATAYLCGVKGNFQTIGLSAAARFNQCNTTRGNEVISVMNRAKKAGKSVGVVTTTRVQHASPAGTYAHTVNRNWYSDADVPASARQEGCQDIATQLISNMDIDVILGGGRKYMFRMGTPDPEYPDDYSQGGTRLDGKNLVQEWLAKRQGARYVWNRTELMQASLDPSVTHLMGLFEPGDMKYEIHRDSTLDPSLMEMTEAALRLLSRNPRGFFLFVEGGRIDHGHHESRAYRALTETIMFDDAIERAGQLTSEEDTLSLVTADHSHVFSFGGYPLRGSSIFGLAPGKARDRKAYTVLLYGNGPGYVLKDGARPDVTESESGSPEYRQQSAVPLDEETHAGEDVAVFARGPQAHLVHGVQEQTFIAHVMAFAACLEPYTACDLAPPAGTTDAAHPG
T2 sequence (P54764 20-547): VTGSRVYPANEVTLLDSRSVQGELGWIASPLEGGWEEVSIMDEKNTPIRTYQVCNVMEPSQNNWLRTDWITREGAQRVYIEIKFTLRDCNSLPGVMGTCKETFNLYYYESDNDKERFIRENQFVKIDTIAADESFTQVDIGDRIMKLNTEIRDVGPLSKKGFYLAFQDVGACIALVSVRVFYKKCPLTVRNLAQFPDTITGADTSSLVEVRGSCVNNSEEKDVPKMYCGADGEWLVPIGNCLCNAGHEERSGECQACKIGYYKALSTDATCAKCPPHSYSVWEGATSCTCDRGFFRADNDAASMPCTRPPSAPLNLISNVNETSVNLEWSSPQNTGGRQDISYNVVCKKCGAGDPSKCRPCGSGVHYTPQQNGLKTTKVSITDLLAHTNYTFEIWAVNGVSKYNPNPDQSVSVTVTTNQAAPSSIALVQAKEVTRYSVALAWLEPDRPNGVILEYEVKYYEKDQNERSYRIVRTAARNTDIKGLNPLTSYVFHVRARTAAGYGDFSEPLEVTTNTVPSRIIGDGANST

Binder	IC50 [1] [nM]	A450 as % of hEphA4-SEAP-His [2] [%]	A450 as % of hEphA4-SEAP-His [3] [%]	Kd [4] [nM]	koff [4] [s⁻¹]	kon [4] [M⁻¹ s⁻¹]
humanized antibody No. 159 (antibody, human IgG2, human Ig kappa; also called L1-6/HK2) heavy: QVQLVQSGSELKKPGASVKVSCKASGYTFTDYSMHWVRQAPGQGLKWMGWINTETGEPTYADDFKGRFVFSLDTSVSTAYLQISSLKAEDTAVYYCARIPLYYYGSRYWYFDVWGQGTTVTVSSASTKGPSVFPLAPSSRSTSESTAALGCLVKDYFPEPVTVSWNSGALTSGVHTFPAVLQSSGLYSLSSVVTVPSSNFGTQTYTCNVDHKPSNTKVDKTVERKSCVECPPCPAPPAAAPSVFLFPPKPKDTLMISRTPEVTCVVVDVSHEDPEVQFNWYVDGVEVHNAKTKPREEQFNSTFRVVSVLTVVHQDWLNGKEYKCKVSNKGLPAPIEKTISKTKGQPREPQVYTLPPSREEMTKNQVSLTCLVKGFYPSDIAVEWESNGQPENNYKTTPPMLDSDGSFFLYSKLTVDKSRWQQGNVFSCSVMHEALHNHYTQKSLSLSPG light: DIQMTQSPSSLSASVGDRVTITCRASENIYRNLAWYQQKPGKAPQLLLYAATNLADGVPSRFSGSGSGTDYTLTISSLQPEDFATYYCQHFWGTPWTFGQGTKVEIKRTVAAPSVFIFPPSDEQLKSGTASVVCLLNNFYPREAKVQWKVDNALQSGNSQESVTEQDSKDSTYSLSSTLTLSKADYEKHKVYACEVTHQGLSSPVTKSFNRGEC	2.6	5.3	5.3	2	0.00061	310000
humanized antibody No. 158 (antibody, human IgG2, human Ig kappa; also called L1-6/HA2) heavy: QVQLVQSGSELKKPGASVKVSCKASGYTFTDYSMHWVRQAPGQGLKWMGWINTETGEPTYAQGFTGRFVFSLDTSVSTAYLQISSLKAEDTAVYYCARIPLYYYGSRYWYFDVWGQGTTVTVSSASTKGPSVFPLAPSSRSTSESTAALGCLVKDYFPEPVTVSWNSGALTSGVHTFPAVLQSSGLYSLSSVVTVPSSNFGTQTYTCNVDHKPSNTKVDKTVERKSCVECPPCPAPPAAAPSVFLFPPKPKDTLMISRTPEVTCVVVDVSHEDPEVQFNWYVDGVEVHNAKTKPREEQFNSTFRVVSVLTVVHQDWLNGKEYKCKVSNKGLPAPIEKTISKTKGQPREPQVYTLPPSREEMTKNQVSLTCLVKGFYPSDIAVEWESNGQPENNYKTTPPMLDSDGSFFLYSKLTVDKSRWQQGNVFSCSVMHEALHNHYTQKSLSLSPG light: DIQMTQSPSSLSASVGDRVTITCRASENIYRNLAWYQQKPGKAPQLLLYAATNLADGVPSRFSGSGSGTDYTLTISSLQPEDFATYYCQHFWGTPWTFGQGTKVEIKRTVAAPSVFIFPPSDEQLKSGTASVVCLLNNFYPREAKVQWKVDNALQSGNSQESVTEQDSKDSTYSLSSTLTLSKADYEKHKVYACEVTHQGLSSPVTKSFNRGEC	2.8	6.3	6.4	1.9	0.00061	310000
humanized antibody No. 157 (antibody, human IgG2, human Ig kappa; also called L1-6/HA1) heavy: QVQLVQSGSELKKPGASVKVSCKASGYTFTDYSMHWVRQAPGQGLEWMGWINTETGEPTYAQGFTGRFVFSLDTSVSTAYLQISSLKAEDTAVYYCARIPLYYYGSRYWYFDVWGQGTTVTVSSASTKGPSVFPLAPSSRSTSESTAALGCLVKDYFPEPVTVSWNSGALTSGVHTFPAVLQSSGLYSLSSVVTVPSSNFGTQTYTCNVDHKPSNTKVDKTVERKSCVECPPCPAPPAAAPSVFLFPPKPKDTLMISRTPEVTCVVVDVSHEDPEVQFNWYVDGVEVHNAKTKPREEQFNSTFRVVSVLTVVHQDWLNGKEYKCKVSNKGLPAPIEKTISKTKGQPREPQVYTLPPSREEMTKNQVSLTCLVKGFYPSDIAVEWESNGQPENNYKTTPPMLDSDGSFFLYSKLTVDKSRWQQGNVFSCSVMHEALHNHYTQKSLSLSPG light: DIQMTQSPSSLSASVGDRVTITCRASENIYRNLAWYQQKPGKAPQLLLYAATNLADGVPSRFSGSGSGTDYTLTISSLQPEDFATYYCQHFWGTPWTFGQGTKVEIKRTVAAPSVFIFPPSDEQLKSGTASVVCLLNNFYPREAKVQWKVDNALQSGNSQESVTEQDSKDSTYSLSSTLTLSKADYEKHKVYACEVTHQGLSSPVTKSFNRGEC	2.6	6.1	6.1	2	0.00068	350000

Now those with a lower IC50 [1], led by results:

IC50 [1] [nM]	A450 as % of hEphA4-SEAP-His [2] [%]	A450 as % of hEphA4-SEAP-His [3] [%]	Kd [4] [nM]	koff [4] [s⁻¹]	kon [4] [M⁻¹ s⁻¹]	Binder
2.5	6.3	5.9	2.2	~0.00085	390000	humanized antibody No. 154 (antibody, human IgG2, human Ig kappa; also called L1-5/HK1) heavy: QVQLVQSGSELKKPGASVKVSCKASGYTFTDYSMHWVRQAPGQGLEWMGWINTETGEPTYADDFKGRFVFSLDTSVSTAYLQISSLKAEDTAVYYCARIPLYYYGSRYWYFDVWGQGTTVTVSSASTKGPSVFPLAPSSRSTSESTAALGCLVKDYFPEPVTVSWNSGALTSGVHTFPAVLQSSGLYSLSSVVTVPSSNFGTQTYTCNVDHKPSNTKVDKTVERKSCVECPPCPAPPAAAPSVFLFPPKPKDTLMISRTPEVTCVVVDVSHEDPEVQFNWYVDGVEVHNAKTKPREEQFNSTFRVVSVLTVVHQDWLNGKEYKCKVSNKGLPAPIEKTISKTKGQPREPQVYTLPPSREEMTKNQVSLTCLVKGFYPSDIAVEWESNGQPENNYKTTPPMLDSDGSFFLYSKLTVDKSRWQQGNVFSCSVMHEALHNHYTQKSLSLSPG light: DIQMTQSPSSLSASVGDRVTITCRASENIYRNLAWYQQKPGKAPKLLLYAATNLADGVPSRFSGSGSGTDYTLTISSLQSEDFATYYCQHFWGTPWTFGQGTKVEIKRTVAAPSVFIFPPSDEQLKSGTASVVCLLNNFYPREAKVQWKVDNALQSGNSQESVTEQDSKDSTYSLSSTLTLSKADYEKHKVYACEVTHQGLSSPVTKSFNRGEC
2.5	5.4	5.3	1.6	0.00056	310000	humanized antibody No. 156 (antibody, human IgG2, human Ig kappa; also called L1-6/HA4) heavy: QIQLVQSGSELKKPGASVKVSCKASGYTFTDYSMHWVRQAPGQGLKWMGWINTETGEPTYAQGFTGRFVFSLDTSVSTAYLQISSLKAEDTAVYYCARIPLYYYGSRYWYFDVWGQGTTVTVSSASTKGPSVFPLAPSSRSTSESTAALGCLVKDYFPEPVTVSWNSGALTSGVHTFPAVLQSSGLYSLSSVVTVPSSNFGTQTYTCNVDHKPSNTKVDKTVERKSCVECPPCPAPPAAAPSVFLFPPKPKDTLMISRTPEVTCVVVDVSHEDPEVQFNWYVDGVEVHNAKTKPREEQFNSTFRVVSVLTVVHQDWLNGKEYKCKVSNKGLPAPIEKTISKTKGQPREPQVYTLPPSREEMTKNQVSLTCLVKGFYPSDIAVEWESNGQPENNYKTTPPMLDSDGSFFLYSKLTVDKSRWQQGNVFSCSVMHEALHNHYTQKSLSLSPG light: DIQMTQSPSSLSASVGDRVTITCRASENIYRNLAWYQQKPGKAPQLLLYAATNLADGVPSRFSGSGSGTDYTLTISSLQPEDFATYYCQHFWGTPWTFGQGTKVEIKRTVAAPSVFIFPPSDEQLKSGTASVVCLLNNFYPREAKVQWKVDNALQSGNSQESVTEQDSKDSTYSLSSTLTLSKADYEKHKVYACEVTHQGLSSPVTKSFNRGEC
2.4	5.8	5.4	1.9	0.00064	330000	humanized antibody No. 155 (antibody, human IgG2, human Ig kappa; also called L1-5/HK4) heavy: QIQLVQSGSELKKPGASVKVSCKASGYTFTDYSMHWVRQAPGQGLKWMGWINTETGEPTYADDFKGRFVFSLDTSVSTAYLQISSLKAEDTAVYYCARIPLYYYGSRYWYFDVWGQGTTVTVSSASTKGPSVFPLAPSSRSTSESTAALGCLVKDYFPEPVTVSWNSGALTSGVHTFPAVLQSSGLYSLSSVVTVPSSNFGTQTYTCNVDHKPSNTKVDKTVERKSCVECPPCPAPPAAAPSVFLFPPKPKDTLMISRTPEVTCVVVDVSHEDPEVQFNWYVDGVEVHNAKTKPREEQFNSTFRVVSVLTVVHQDWLNGKEYKCKVSNKGLPAPIEKTISKTKGQPREPQVYTLPPSREEMTKNQVSLTCLVKGFYPSDIAVEWESNGQPENNYKTTPPMLDSDGSFFLYSKLTVDKSRWQQGNVFSCSVMHEALHNHYTQKSLSLSPG light: DIQMTQSPSSLSASVGDRVTITCRASENIYRNLAWYQQKPGKAPKLLLYAATNLADGVPSRFSGSGSGTDYTLTISSLQSEDFATYYCQHFWGTPWTFGQGTKVEIKRTVAAPSVFIFPPSDEQLKSGTASVVCLLNNFYPREAKVQWKVDNALQSGNSQESVTEQDSKDSTYSLSSTLTLSKADYEKHKVYACEVTHQGLSSPVTKSFNRGEC

From patent publication US20190077860A1 (EISAI R AND D MANAGEMENT, published 2019)
